Target: recombinant type 1 inositol 1,4,5-trisphosphate receptor, N-terminally tagged with ECFP (rat) (UniProt P29994)
Assay: SEC; Calibrated Superose 6 10/300 GL gel filtration, the final purification step; 50 mM Tris/HCl, 150 mM NaCl, 1 mM EDTA, 1 mM dithiothreitol, 5% glycerol, 0.02% DDM, pH 8.3; 4 °C; oligomeric size of the purified receptor

stoichiometry N: 4
Substance: recombinant type 1 inositol 1,4,5-trisphosphate receptor, N-terminally tagged with ECFP (from UniProt P29994 1-2750)

Source: paper PMC3685215
